Reference: US6667388B2, “Peptide inhibitor of MMP activity and angiogenesis” (Beth Israel Deaconess Medical Center, priority 2001, dated 2003)

Tests used:
[1] = molecular target: T1, proMMP-9 (Homo sapiens, UniProt P14780); assay: MMP enzymatic assay with [3H]-labeled gelatin substrate, basal activity of proMMP-9; format: biochemical; conditions: peptide tested as MBP fusion protein; proMMP9 preincubated at 37° C. for 2 hours with 10 or 100 ng, then [3H]-labeled substrate for 1 hour; FIG. 2
T1 construct: purchased CALBIOCHEM
Protocol: FIG. 2: is a bar graph depicting the inhibitory effect of the peptide of the invention on MMP-9 activity in an in vitro assay. ProMMP9 was preincubated at 37° C. for 2 hours with 10 or 100 ng of recombinant MBP-peptide fusion protein (MBP-29) followed by addition of [^3H]-labeled substrate for 1 hour.
(§1) For expression of the peptide as a fusion protein for subsequent use in MMP-9 inhibition assays, the cDNA encoding the peptide in SEQ ID NO:2 was cloned into the prokaryotic expression vector pMAL.c2× (NEN). The peptide was expressed as a fusion with the maltose binding protein (MBP) in the bacterial strain, BL21-codon plus (STRATAGENE). The bacteria were transformed using any standard method known in the art and grown at 37° C., as recommended by the supplier. The bacterial culture was supplemented with IPTG (isopropyl B-D-thiogalacto pyranoside) to a final concentration of 0.3 mM and grown further. The fusion protein with MBP was subsequently extracted from the bacterial cells using purified amylose resin. ProMMP (CALBIOCHEM) was used for assessing functionality of the bacterially expressed MBP-fusion peptide.
(§2) The enzymatic assays were performed using [3H]-labeled gelatin substrate. […] The radioactivity in the TCA soluble fraction was determined by a β-scintillation counter which gives a measure of the enzymatic activity of MMP-9.

[2] = molecular target: T2, mouse TSP2-TSR (Mus musculus, UniProt Q03350); assay: Yeast two-hybrid screen with TSP2-TSR as bait; format: binding; conditions: transactivation of reporter genes HIS3 and lacZ
T2 construct: The TSP-1 and TSP-2 TSR regions corresponded to nucleotides 1342-1861 and 1356-1876 of TSP-1 and TSP-2 respectively; expressed in transfected cells; host or cells: S. cerevisiae strain Y190 (bait vector pAS2-2)
Protocol: Generally, the nomenclature and the laboratory procedures in recombinant DNA technology described here are well known to those skilled in the art and are commonly employed in the art. The peptide of SEQ ID NO:1 was isolated by the yeast two-hybrid system using the MATCHMAKER two-hybrid system from CLONTECH.
The S. cerevisiae strain Y190 (CLONTECH, CA) was used for cDNA library screening and for direct testing of protein—protein interactions. The cells were grown at 30° C. either in rich YPD media or minimal media with the appropriate amino-acid supplements. The minimal media were SD-Trp, in which tryptophan was omitted; SD-Leu, in which leucine was omitted; SD-Trp, Leu, in which both tryptophan and leucine were omitted, and SD-Trp, leu, His, in which tryptophan, leucne and histidine were lacking.
The constructs for use in the yeast two-hybrid system were based on the GAL4 two-hybrid system 2, which includes the cloning vectors pAS2-1 and pACT2 (CLONTECH, CA). […] A bait vector with a second reading frame, designated pAS2-2, was constructed by linearizing the pAS2-1 with NcoI and filling-in using T4 DNA polymerase. […]
During the screen, the interaction between the bait (TSP1-TSR or TSP2-TSR) and the prey (NIH3T3 translational library) were assessed by their ability to transactivate the reporter genes HIS3 and lacZ. […]

[3] = molecular target: T3, proMMP-9 activated by MMP3 (Homo sapiens, UniProt P14780); assay: MMP enzymatic assay with [3H]-labeled gelatin substrate, proMMP-9 activated by MMP3; format: biochemical; conditions: peptide tested as MBP fusion protein; proMMP-9 activated with MBP-MMP3, incubated for 2 hours; FIG. 3
T3 construct: purchased CALBIOCHEM
Protocol: FIG. 3: is a bar graph depicting the inhibitory effect of the peptide of the invention on activated MMP-9 in an in vitro assay. ProMMP-9 activated with MBP-MMP3 was incubated for 2 hours with control protein or recombinant MBP-peptide fusion protein (MBP-29).
as §1, §2

T3 sequence (P14780 107-707 limits assumed): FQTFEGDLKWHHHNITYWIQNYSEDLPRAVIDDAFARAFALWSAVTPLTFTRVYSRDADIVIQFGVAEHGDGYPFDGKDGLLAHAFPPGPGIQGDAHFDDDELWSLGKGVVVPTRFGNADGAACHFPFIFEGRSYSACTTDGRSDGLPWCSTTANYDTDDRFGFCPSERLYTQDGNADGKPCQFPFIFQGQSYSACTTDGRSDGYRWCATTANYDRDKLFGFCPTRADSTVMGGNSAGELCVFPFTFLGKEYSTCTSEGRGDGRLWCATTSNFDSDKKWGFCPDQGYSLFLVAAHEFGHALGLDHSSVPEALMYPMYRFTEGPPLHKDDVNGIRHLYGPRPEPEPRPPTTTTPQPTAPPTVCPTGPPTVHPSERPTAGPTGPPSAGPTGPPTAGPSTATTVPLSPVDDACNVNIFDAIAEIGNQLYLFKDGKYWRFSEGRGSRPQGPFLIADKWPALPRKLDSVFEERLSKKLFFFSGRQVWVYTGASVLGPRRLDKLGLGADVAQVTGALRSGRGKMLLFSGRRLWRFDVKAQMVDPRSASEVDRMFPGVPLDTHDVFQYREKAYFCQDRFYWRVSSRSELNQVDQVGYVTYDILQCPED
T1 sequence (P14780 20-707 limits assumed): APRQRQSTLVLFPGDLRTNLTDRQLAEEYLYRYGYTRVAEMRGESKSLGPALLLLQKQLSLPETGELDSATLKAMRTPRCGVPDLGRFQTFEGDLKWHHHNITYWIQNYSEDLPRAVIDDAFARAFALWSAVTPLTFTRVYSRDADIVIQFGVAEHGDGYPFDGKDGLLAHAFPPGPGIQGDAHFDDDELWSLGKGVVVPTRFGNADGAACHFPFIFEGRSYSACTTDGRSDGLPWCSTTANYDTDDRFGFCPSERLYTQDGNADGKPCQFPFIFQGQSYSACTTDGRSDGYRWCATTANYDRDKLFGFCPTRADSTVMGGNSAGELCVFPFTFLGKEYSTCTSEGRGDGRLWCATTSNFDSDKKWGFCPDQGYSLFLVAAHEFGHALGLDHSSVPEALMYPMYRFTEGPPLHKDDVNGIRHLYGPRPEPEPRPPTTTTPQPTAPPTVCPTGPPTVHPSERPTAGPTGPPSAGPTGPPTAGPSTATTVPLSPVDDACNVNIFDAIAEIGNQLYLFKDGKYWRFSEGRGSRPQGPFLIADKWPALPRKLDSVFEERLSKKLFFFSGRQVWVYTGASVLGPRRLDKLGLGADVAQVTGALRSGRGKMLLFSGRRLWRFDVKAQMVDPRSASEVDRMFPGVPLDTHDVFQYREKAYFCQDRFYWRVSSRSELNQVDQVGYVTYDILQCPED
T2 sequence (Q03350 381-552): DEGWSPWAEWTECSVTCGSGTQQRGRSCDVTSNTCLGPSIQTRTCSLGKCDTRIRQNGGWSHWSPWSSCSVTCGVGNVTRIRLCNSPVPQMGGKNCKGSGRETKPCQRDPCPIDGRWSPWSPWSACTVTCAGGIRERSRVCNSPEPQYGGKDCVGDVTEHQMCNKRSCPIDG

Sequence: APWNCCPVSCCGNCCFFRAL QSCPQG (APWNCCPVSCCGNCCFFRALQSCPQG; OTHER INFORMATION: Peptide Inhibitor of MMP- 9 Activity and Angiogenesis) [peptide of SEQ ID NO:1]
- inhibition of MMP-9 activity (basal activity of proMMP-9) [1]: inhibited MMP-9 activity in a dose-dependent manner
- interaction with TSP-2 [2]: isolated as an interactor of TSP-2
- inhibition of MMP-3 dependent activation of MMP (activated MMP-9) [3]: inhibited in a dose-dependent manner
